This is an account of results in PMC4405707.

A short description of data set [1]: outside-out patch, 10 mM glutamate, τw,des. To be noted: glycan lost; control: GluA2i WT + γ-2.
Data set [2] in a line: outside-out patch, steady state-to-peak ratio. To be noted: glycan lost; control: GluA2i WT + γ-2.

B1: GluA2i: N385D (protein)
parent chain: MQKIMHISVLLSPVLWGLIFGVSSNSIQIGGLFPRGADQEYSAFRVGMVQFSTSEFRLTPHIDNLEVANSFAVTNAFCSQFSRGVYAIFGFYDKKSVNTITSFCGTLHVSFITPSFPTDGTHPFVIQMRPDLKGALLSLIEYYQWDKFAYLYDSDRGLSTLQAVLDSAAEKKWQVTAINVGNINNDKKDETYRSLFQDLELKKERRVILDCERDKVNDIVDQVITIGKHVKGYHYIIANLGFTDGDLLKIQFGGANVSGFQIVDYDDSLVSKFIERWSTLEEKEYPGAHTATIKYTSALTYDAVQVMTEAFRNLRKQRIEISRRGNAGDCLANPAVPWGQGVEIERALKQVQVEGLSGNIKFDQNGKRINYTINIMELKTNGPRKIGYWSEVDKMVVTLTELPSGNDTSGLENKTVVVTTILESPYVMMKKNHEMLEGNERYEGYCVDLAAEIAKHCGFKYKLTIVGDGKYGARDADTKIWNGMVGELVYGKADIAIAPLTITLVREEVIDFSKPFMSLGISIMIKKPQKSKPGVFSFLDPLAYEIWMCIVFAYIGVSVVLFLVSRFSPYEWHTEEFEDGRETQSSESTNEFGIFNSLWFSLGAFMQQGCDISPRSLSGRIVGGVWWFFTLIIISSYTANLAAFLTVERMVSPIESAEDLSKQTEIAYGTLDSGSTKEFFRRSKIAVFDKMWTYMRSAEPSVFVRTTAEGVARVRKSKGKYAYLLESTMNEYIEQRKPCDTMKVGGNLDSKGYGIATPKGSSLGTPVNLAVLKLSEQGVLDKLKNKWWYDKGECGAKDSGSKEKTSALSLSNVAGVFYILVGGLGLAMLVALIEFCYKSRAEAKRMKVAKNPQNINPSSSQNSQNFATYKEGYNVYGIESVKI
For B1, the “other: channel desensitisation kinetics” value in data set [1] is recorded as “no change”. Besides, in data set [2], the “other: steady-state channel current” value is given as “increases”.

B2: GluA2i: N392Q (protein)
parent chain: MQKIMHISVLLSPVLWGLIFGVSSNSIQIGGLFPRGADQEYSAFRVGMVQFSTSEFRLTPHIDNLEVANSFAVTNAFCSQFSRGVYAIFGFYDKKSVNTITSFCGTLHVSFITPSFPTDGTHPFVIQMRPDLKGALLSLIEYYQWDKFAYLYDSDRGLSTLQAVLDSAAEKKWQVTAINVGNINNDKKDETYRSLFQDLELKKERRVILDCERDKVNDIVDQVITIGKHVKGYHYIIANLGFTDGDLLKIQFGGANVSGFQIVDYDDSLVSKFIERWSTLEEKEYPGAHTATIKYTSALTYDAVQVMTEAFRNLRKQRIEISRRGNAGDCLANPAVPWGQGVEIERALKQVQVEGLSGNIKFDQNGKRINYTINIMELKTNGPRKIGYWSEVDKMVVTLTELPSGNDTSGLENKTVVVTTILESPYVMMKKNHEMLEGNERYEGYCVDLAAEIAKHCGFKYKLTIVGDGKYGARDADTKIWNGMVGELVYGKADIAIAPLTITLVREEVIDFSKPFMSLGISIMIKKPQKSKPGVFSFLDPLAYEIWMCIVFAYIGVSVVLFLVSRFSPYEWHTEEFEDGRETQSSESTNEFGIFNSLWFSLGAFMQQGCDISPRSLSGRIVGGVWWFFTLIIISSYTANLAAFLTVERMVSPIESAEDLSKQTEIAYGTLDSGSTKEFFRRSKIAVFDKMWTYMRSAEPSVFVRTTAEGVARVRKSKGKYAYLLESTMNEYIEQRKPCDTMKVGGNLDSKGYGIATPKGSSLGTPVNLAVLKLSEQGVLDKLKNKWWYDKGECGAKDSGSKEKTSALSLSNVAGVFYILVGGLGLAMLVALIEFCYKSRAEAKRMKVAKNPQNINPSSSQNSQNFATYKEGYNVYGIESVKI
As for B2, in data set [1], the “other: channel desensitisation kinetics” value is “no change”. For the same protein, the “other: steady-state channel current” value in data set [2] is on record as “increases”.
